Measurements from PMC12445682 (Nucleic Acids Research, 2025).

B1: P2–OLD H332A (ATPase domain mutant), His-MBP-bdSUMO fusion (enzyme, phage P2, UniProt P13520 1-586, looked up)
chain: MTVRLASVSISNFRSCKSTSAILRPFTALVGYNNAGKSNIILAIKWLLDGSLISESDVYDPTHPVSVEGVIQGITDDTLSLLTEENQQKIAPFIIDGTLTFARRQEFNKETGKAKKSLDVYDGTTWKKNPGGIDGAISNIFPEPIHIPAMSDAVEDSTKCKNTTTIGKILSAIVSEIKQEHEEKFSKNISEIGKYLSHNGENRLESLNKIDSGVNKKVNQFFPDVSVKLHFPTPTLDEIFKSGTLKVFESREDEPVMRDISRFGHGTQRSIQMALIQYLAEIKKENSESKKSNTLIFIDEPELYLHPSAINSVRESLVTLSESGYQVIISTASASMLSAKHAANAIQVCKDSNGTIARKTISEKIEELYKSSSPQLHSAFTLSNSSYLLFSEEVLLVEGKTETNVLYALYKKINGHELNPSKICIVAVDGKGSLFKMSQIINAIGIKTRILADCDFLSNILLTEHKDLLSTECDNLLTALIESINSGELSLNTKVTTFESFKSISSKDFIKICNHEKTQKHIHEIHQKLKDNGIYIWKSGDIEAVYGFGKKQTEWDSLLDCLCDESKDVRAVIKKYDEMEDFIKWI
B2: P2–OLD H332A/E402A (ATPase and Toprim double mutant), His-MBP-bdSUMO fusion (enzyme, phage P2, UniProt P13520 1-586, looked up)
chain: MTVRLASVSISNFRSCKSTSAILRPFTALVGYNNAGKSNIILAIKWLLDGSLISESDVYDPTHPVSVEGVIQGITDDTLSLLTEENQQKIAPFIIDGTLTFARRQEFNKETGKAKKSLDVYDGTTWKKNPGGIDGAISNIFPEPIHIPAMSDAVEDSTKCKNTTTIGKILSAIVSEIKQEHEEKFSKNISEIGKYLSHNGENRLESLNKIDSGVNKKVNQFFPDVSVKLHFPTPTLDEIFKSGTLKVFESREDEPVMRDISRFGHGTQRSIQMALIQYLAEIKKENSESKKSNTLIFIDEPELYLHPSAINSVRESLVTLSESGYQVIISTASASMLSAKHAANAIQVCKDSNGTIARKTISEKIEELYKSSSPQLHSAFTLSNSSYLLFSEEVLLVEGKTATNVLYALYKKINGHELNPSKICIVAVDGKGSLFKMSQIINAIGIKTRILADCDFLSNILLTEHKDLLSTECDNLLTALIESINSGELSLNTKVTTFESFKSISSKDFIKICNHEKTQKHIHEIHQKLKDNGIYIWKSGDIEAVYGFGKKQTEWDSLLDCLCDESKDVRAVIKKYDEMEDFIKWI
B3: P2–OLD E402A (Toprim domain mutant), His-MBP-bdSUMO fusion (enzyme, phage P2, UniProt P13520 1-586, looked up)
chain: MTVRLASVSISNFRSCKSTSAILRPFTALVGYNNAGKSNIILAIKWLLDGSLISESDVYDPTHPVSVEGVIQGITDDTLSLLTEENQQKIAPFIIDGTLTFARRQEFNKETGKAKKSLDVYDGTTWKKNPGGIDGAISNIFPEPIHIPAMSDAVEDSTKCKNTTTIGKILSAIVSEIKQEHEEKFSKNISEIGKYLSHNGENRLESLNKIDSGVNKKVNQFFPDVSVKLHFPTPTLDEIFKSGTLKVFESREDEPVMRDISRFGHGTQRSIQMALIQYLAEIKKENSESKKSNTLIFIDEPELYLHPSAINSVRESLVTLSESGYQVIISTHSASMLSAKHAANAIQVCKDSNGTIARKTISEKIEELYKSSSPQLHSAFTLSNSSYLLFSEEVLLVEGKTATNVLYALYKKINGHELNPSKICIVAVDGKGSLFKMSQIINAIGIKTRILADCDFLSNILLTEHKDLLSTECDNLLTALIESINSGELSLNTKVTTFESFKSISSKDFIKICNHEKTQKHIHEIHQKLKDNGIYIWKSGDIEAVYGFGKKQTEWDSLLDCLCDESKDVRAVIKKYDEMEDFIKWI

Target: the molecule itself
Assay: SEC

Binding result, binds:
B1, B2, B3
